Entries after “also recorded” stand apart in the source; their conditions may differ. Bridge positions count the residues as written; N and C are the ends. Square brackets hold non-standard residues; d marks the D form. Ends that are not written are not given here. S5 = C=CCCC[C@](C)(N)C(=O)O; Sar = CNCC(=O)O
Columns and labels:
Assay type in all cases: cell-based
[1] = target: T1, PD-1/PD-L1 interaction (Homo sapiens, UniProt Q15116+Q9NZQ7); assay: PD-1/PD-L1 Blockade Bioassay (Promega); details: increasing peptide concentrations; listed as RLS-0118
T1 construct: host or cells: PD-1 effector cells; PD-L1 aAPC/CHO-K1 cells
T1 sequence (Q15116 25-288): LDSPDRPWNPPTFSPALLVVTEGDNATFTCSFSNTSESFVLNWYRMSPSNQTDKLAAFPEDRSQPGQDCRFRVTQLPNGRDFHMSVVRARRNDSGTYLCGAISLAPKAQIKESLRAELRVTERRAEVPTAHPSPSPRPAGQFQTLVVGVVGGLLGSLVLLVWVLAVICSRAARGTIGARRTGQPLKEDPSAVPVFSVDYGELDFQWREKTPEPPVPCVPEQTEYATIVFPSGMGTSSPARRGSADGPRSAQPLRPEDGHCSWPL
T1 sequence (Q9NZQ7 19-290): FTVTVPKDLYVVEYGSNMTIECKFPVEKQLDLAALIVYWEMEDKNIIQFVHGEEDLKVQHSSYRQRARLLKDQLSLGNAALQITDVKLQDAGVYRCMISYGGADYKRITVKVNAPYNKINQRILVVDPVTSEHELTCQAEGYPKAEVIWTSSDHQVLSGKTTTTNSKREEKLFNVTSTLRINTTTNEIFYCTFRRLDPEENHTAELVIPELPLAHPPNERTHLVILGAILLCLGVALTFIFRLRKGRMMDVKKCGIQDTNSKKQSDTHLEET
Protocol: PD-1 effector cells were incubated with PD1-L1 aAPC cells in the absence or presence of increasing concentrations of anti-PD-1 antibody (positive control) and select PIC1 peptides. Luminescence was detected in luminometer plate reader.
To assess if PIC1 peptides could block PD-1 inhibitory activity in a cell-based assay, select peptides were screened in the PD-1/PD-L1 Blockade Bioassay (Promega). The PD-1/PD-L1 Blockade Bioassay is a biologically relevant MOA-based assay that can be used to measure the potency and stability of antibodies and other biologics designed to block the PD-1/PD-L1 interaction. This bioluminescent cell-based assay is used to measure the potency and stability of molecules targeting PD-1 and consists of two genetically engineered cell lines: aAPC/CHO-K1 Cells are CHO-K1 cells with an engineered cell surface protein designed to activate cognate TCRs in an antigen-independent manner. When the two cell types are co-cultured, the PD-1/PD-L1 interaction inhibits TCR signaling and NFAT-mediated luciferase activity. Addition of an inhibitory molecule that blocks either PD-1 or PD-L1 releases the inhibitory signal and results in TCR signaling and NFAT-mediated luciferase activity.

[2] = test system: purified human Pan T-cells; assay: T-cell exhaustion protocol (Dynabeads re-stimulation); details: peptides 2 mg/ml at each stimulation; supernatant ELISA
Protocol: Purified human pan-T-cells were subject to stimulation with Dynabeads every 48 hours over the period of 8 days with cells also receiving PIC1 peptides (2 mg/ml) at each stimulation. Cells not receiving Dynabeads were run in parallel to assess background levels of Caspase 3/7 signal. At the eighth day, cells were harvested and the levels of Caspase 3/7 determined by ELISA.
Purified human pan-T-cells were subject to stimulation with Dynabeads every 48 hours over the period of 8 days with cells also receiving PIC1 peptides (2 mg/ml) at each stimulation. Cell supernatants were collected at each stimulation and levels of IL-2 and IFN-gamma assayed by ELISA.
T-cell exhaustion is a form of T-cell dysfunction that occurs in cancer. It is defined by poor effector function, reduction in cytokine release (e.g., IL-2, TNF-alpha, IFN-gamma), sustained expression of inhibitory receptors (e.g., PD-1, LAG-3, CD244, CD160) with the progressive loss of effector function due to overstimulation. Exhaustion prevents optimal control of tumor growth. Exhausted T cells are prevalent in the tumor microenvironment (TME) and can lead to T-cell apoptosis. T-cell exhaustion is reversible, and pharmaceutical inhibition of T-cell exhaustion has been considered a promising strategy by many cancer researchers. To ascertain if PIC1 peptides could reverse T-cell exhaustion and increase T cell viability and effector function, a T-cell exhaustion protocol was developed. To induce T-cell exhaustion, purified human Pan T-cells were stimulated with T-Activator CD3/CD28 Dynabeads and cells are washed and re-stimulated every 48 hours. PIC1 peptides were added to the cells after each stimulation with Dynabeads. After three to four stimulations cells were harvested for readouts which consisted of assessing T-cell apoptosis by measuring Caspase 3/7 levels and production of cytokines IL-2 and IFN-gamma which is indicative of T-cell functionality. […] To further evaluate if PIC1 peptides could restore T-cell functionality in cells that have undergone the exhaustion protocol, the inventors next assessed production of cytokines IL-2 and IFN-gamma. Supernatants from the cells after each stimulation were collected and the cytokines measured by ELISA. […] The lower level of IFN-gamma signal compared to IL-2 was consistently seen in this assay.

[3] = test system: human umbilical endothelial vein cells (HUVECs); assay: LPS-induced (non-VEGF mediated) angiogenesis in HUVECs; details: peptides 10 mg/ml, LPS 10 ug/ml, overnight
Protocol: HUVEC cells were incubated with the indicated PIC1 peptides followed by LPS addition and plating onto extracellular matrix. After overnight incubation, evidence of angiogenesis was determined by fluorescence microscopy. Cells receiving LPS and not receiving LPS served as positive and negative controls for angiogenesis.
While VEGF-plays a major role in angiogenesis in cancer, other non-VEGF factors can induce angiogenesis to promote tumor growth. Currently there are no drugs on the market to inhibit non-VEGF mediated angiogenesis. To assess whether the PIC1 peptides could inhibit non-VEGF mediated angiogenesis, the inventors developed a model of angiogenesis using human umbilical endothelial vein cells (HUVECs) in which addition of lipopolysaccharide (LPS) induces angiogenesis. HUVECs were first incubated with Cell Trace Violet dye, followed by addition of PIC1 peptides (10 mg/ml) for 1 hour at 37° C. and then treated with 10 ug/ml of LPS and placement on an extracellular matrix to promote angiogenesis. Cells were incubated overnight at 37° C. in a humidified CO2 incubator. Cells were then visualized for tube formation indicative of angiogenesis by fluorescence microscopy.

[4] = target: T2, CTLA-4 (Homo sapiens, UniProt P16410); assay: CTLA-4 Blockade Bioassay (Promega); set-up: host or cells: Jurkat T cells (CTLA-4 effector cells); aAPC/Raji cells; details: increasing concentrations
T2 sequence (P16410 36-223): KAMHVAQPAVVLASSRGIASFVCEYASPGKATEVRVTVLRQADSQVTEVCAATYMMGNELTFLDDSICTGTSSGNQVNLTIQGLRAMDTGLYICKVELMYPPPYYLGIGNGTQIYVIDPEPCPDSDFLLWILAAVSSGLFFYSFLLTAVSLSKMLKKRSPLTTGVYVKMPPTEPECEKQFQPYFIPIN
Protocol: CTLA-4 effector cells were incubated with aAPC/Raji Cells in the absence or presence of increasing concentrations of anti-CTLA-4 antibody (positive control), RLS-0127*, RLS-0130, RLS-0156, RLS-0170 and RLS-0174. Luminescence was detected in luminometer plate reader.
To assess if PIC1 peptides could block CTLA-4 inhibitory activity in a cell-based assay, select peptides were screened in the CTLA-4 Blockade Bioassay (Promega). This bioluminescent cell-based assay is used to measure the potency and stability of molecules targeting CTLA-4 and consists of two genetically engineered cell lines: CTLA-4 effector cells: Jurkat T cells expressing human CTLA-4 and a luciferase reporter driven by a native promoter which responds to TCR/CD28 activation and aAPC/Raji Cells: Raji cells expressing an engineered cell surface protein designed to activate cognate TCRs in an antigen-independent manner and endogenously expressing CTLA-4 ligands CD80 and CD86. When the two cell types are co-cultured, CTLA-4 competes with CD28 for their shared ligands, CD80 and CD86 and thus inhibits CD28 pathway activation and promoter-mediated luminescence. Addition of a molecule that blocks the interaction of CTLA-4 with its ligands CD80 and CD86 results in promoter-mediated luminescence.

Substance: IALILEP(Sar)S5CQES5AA (IALILEP[Sar][S5]CQE[S5]AA; staple 9-13) [PA-0118]
- inhibition of PD-1/PD-L1 inhibitory signaling (luminescence) [1]: increase in luminescence indicative of inhibition of PD-1/PD-L1 inhibitory signaling; also recorded: able to inhibit PD-1/PD-L1 mediated cell signaling
- IL-2 signal at stimulation 2 [2]: did not
- inhibition of LPS-induced angiogenesis (tube formation) [3]: no signs of angiogenesis
- inhibitory activity in CTLA-4 blockade bioassay (luminescence) [4]: did not

Source: patent US20230272012A1, “PEPTIDES AND METHODS OF USE” (REALTA LIFE SCIENCES, INC., priority 2020, published 2023)
